Test results reported in publication PMC12414692.

Key:
[1] = target: hNaV1.5 ΔKPQ (deletion of lysine, proline and glutamine at positions 1505–1507) (human) (UniProt Q14524)
[2] = target: hNaV1.5 (human voltage-activated sodium channel alpha subunit NaV1.5, wild type) (human) (UniProt Q14524)

B1: β4 peptide (derived from Homo sapiens sodium channel β4 subunit) (peptide)
peptide: KKLITFILKKTREK
B1 was tested, and the normalized INaR peak current, whole-cell voltage clamp of HEK293T cells, 30 μM β4 peptide in the pipette, against wild-type hNaV1.5 with the peptide (fold (against wild type with β4 peptide)) [1] was 2 and the current availability at pulse III (0 mV) after conditioning pulses from −20 to 90 mV and 5 ms at −100 mV, 30 μM β4 peptide in the pipette [2] was 1.5 fold.
